Reference: the supplement of paper PMC9876800

System: peptide library, one residue held at a place counted from the S/T acceptor
Experiment: relative phosphorylation of the sub-library (ratio to the mean residue at this position); higher = residue favoured
Conditions: human
In short: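 Relative sub-library phosphorylation is a ratio to the mean residue at the same position. Purified recombinant kinases were incubated under kinase-specific conditions with biotinylated degenerate peptide sub-libraries, each fixing one residue at one position around a central Ser/Thr, using 50 μM peptide and 50 μM ATP spiked with γ-32P-ATP for 90 min. Spots captured on streptavidin membranes were phosphorimaged and quantified by densitometry.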

Chain of CAMK2G, construct: aa24-334 (Q13555 24-334, looked up): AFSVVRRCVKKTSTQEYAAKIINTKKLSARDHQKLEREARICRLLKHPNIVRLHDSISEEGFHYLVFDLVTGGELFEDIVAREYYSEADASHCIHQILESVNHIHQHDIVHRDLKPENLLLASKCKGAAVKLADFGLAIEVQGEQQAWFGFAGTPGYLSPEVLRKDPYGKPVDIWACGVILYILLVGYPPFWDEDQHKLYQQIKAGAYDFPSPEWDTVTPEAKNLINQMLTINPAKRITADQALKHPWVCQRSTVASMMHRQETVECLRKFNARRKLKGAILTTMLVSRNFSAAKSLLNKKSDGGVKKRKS
Chain of PRKAA2, construct: Full length (P54646 whole entry, looked up): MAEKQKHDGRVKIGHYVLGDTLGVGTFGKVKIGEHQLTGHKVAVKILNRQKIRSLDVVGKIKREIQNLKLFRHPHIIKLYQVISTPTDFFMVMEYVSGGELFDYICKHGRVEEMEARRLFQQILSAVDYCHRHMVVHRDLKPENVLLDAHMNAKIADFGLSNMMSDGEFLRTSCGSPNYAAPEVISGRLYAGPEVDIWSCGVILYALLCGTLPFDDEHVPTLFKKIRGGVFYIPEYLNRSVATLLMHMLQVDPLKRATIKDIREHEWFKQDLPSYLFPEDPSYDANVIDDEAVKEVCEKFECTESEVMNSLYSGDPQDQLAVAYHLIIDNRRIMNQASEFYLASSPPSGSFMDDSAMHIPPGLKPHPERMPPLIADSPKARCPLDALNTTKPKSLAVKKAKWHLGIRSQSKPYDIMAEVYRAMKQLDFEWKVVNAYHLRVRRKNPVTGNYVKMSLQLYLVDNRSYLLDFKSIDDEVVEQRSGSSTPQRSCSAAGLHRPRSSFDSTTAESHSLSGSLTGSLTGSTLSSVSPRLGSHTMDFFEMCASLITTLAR

PRKAA2, construct: Full length (from UniProt P54646)
relative phosphorylation
Conditions	at +1	at +2	at +3	at +4	at -1	at -2	at -3	at -4	at -5
A fixed	1.05	1.53	0.803	0.597	1.14	1.34	0.699	1.19	0.889
D fixed	0.54	0.575	1.53	0.614	0.593	0.42	0.258	0.419	0.336
E fixed	0.708	0.492	0.805	0.454	0.495	0.427	0.368	0.546	0.308
F fixed	1.88	0.855	1.01	1.27	0.734	0.655	0.4	0.67	1.3
G fixed	0.711	0.724	0.933	0.637	1.38	0.933	0.739	1.13	0.815
H fixed	1.15	1.48	2.39	0.747	1.12	1.18	1.26	1.26	0.8
I fixed	0.565	1.19	0.531	2.12	0.339	0.925	0.335	0.577	1.42
K fixed	1.01	0.689	1.01	0.777	1.9	1.62	2.75	2.22	1.27
L fixed	0.814	1.29	0.677	2.7	0.714	0.548	0.398	0.692	1.64
M fixed	1.33	0.833	0.693	2.04	0.978	0.575	0.473	0.928	1.51
N fixed	0.942	1.18	1.69	0.864	1.16	1.93	0.821	0.801	0.684
P fixed	0.269	1.37	0.41	0.789	1.51	0.826	0.991	1.31	0.964
Q fixed	1.41	1.03	0.978	0.806	1.22	0.981	0.851	0.874	0.825
R fixed	1.23	0.652	1.06	0.618	1.58	1.84	5.14	2.31	1.89
V fixed	0.779	1.34	0.506	0.876	0.49	1.47	0.365	0.7	0.769
W fixed	1.35	0.966	1.16	0.617	0.73	0.661	0.559	0.666	0.723
Y fixed	1.27	0.806	0.808	0.479	0.903	0.676	0.596	0.713	0.854
pThr fixed	0.69	0.503	0.35	0.709	0.324	0.504	0.49	0.644	0.588
pTyr fixed	0.649	0.452	0.57	0.529	0.607	0.533	0.471	0.475	0.696

CAMK2G, construct: aa24-334 (from UniProt Q13555)
relative phosphorylation
Conditions	at +1	at +2	at +3	at +4	at -1	at -2	at -3	at -4	at -5
A fixed	0.737	0.749	0.902	0.943	0.933	0.991	0.897	0.98	1
D fixed	0.862	3.95	1.64	1.87	1.41	1.02	0.898	1.07	1.13
E fixed	0.878	2.06	2.04	1.99	1.26	0.887	0.9	1.04	1.12
F fixed	2.53	0.723	0.818	0.816	0.913	1.25	1.27	0.987	0.991
G fixed	0.709	0.692	0.983	1.02	0.953	1.07	0.829	0.974	0.971
H fixed	0.814	0.784	0.979	0.903	0.897	1.25	1.06	1.14	1.19
I fixed	1.14	0.712	0.879	0.814	0.855	0.775	0.918	0.924	0.855
K fixed	0.824	0.705	0.863	0.785	1.1	0.889	0.945	0.946	1.09
L fixed	1.01	0.675	0.907	0.812	0.965	0.795	0.916	0.894	0.953
M fixed	1.43	0.696	0.855	0.785	0.944	0.841	1.04	0.903	0.871
N fixed	0.813	0.92	0.943	0.91	1.05	1.17	1.04	1.07	1.02
P fixed	0.675	0.64	0.708	0.948	0.78	0.705	0.871	0.896	0.864
Q fixed	0.959	0.773	0.98	0.911	1.07	1	0.982	0.96	0.916
R fixed	0.841	0.72	0.833	0.764	1.11	0.963	1.14	0.906	1
V fixed	1.02	0.729	0.888	0.85	0.912	0.805	0.829	0.883	0.963
W fixed	0.776	0.74	0.877	1.01	0.919	1.41	1.33	1.37	1.13
Y fixed	0.984	0.728	0.907	0.881	0.933	1.18	1.14	1.05	0.938
pThr fixed	1.09	1.16	1.78	2.53	1.25	1	0.985	1.11	1
pTyr fixed	1.23	4.79	1.69	2.15	1.63	1.11	1.11	1.1	1.02
